Results on four molecules are retold here after paper PMC8646600 (Advanced Science, 2021).

Experiment [1] has as its target SARS-CoV-2 RBD titrated over immobilised Fabs (construct not stated) (SARS-CoV-2 (ancestral, Wuhan-Hu-1 …, UniProt P0DTC2)). Nature of the experiment: BLI. Particulars: both partners purified.
Experiment [2] has as its target T1, full-length SARS-CoV spike expressed on cells (SARS-CoV, strain , UniProt P59594).
T1 construct: source: HEK293T, transiently transfected, on cells
As to the kind of experiment: flow cytometry on cells. The settings on record: one partner purified.

For experiment [3], the target named is T2, SARS-CoV-2 spike RBD (S-RBD), hFc tag removed by thrombin digestion, biotinylated (SARS-CoV-2, UniProt P0DTC2). Nature of the experiment: ELISA. The settings on record: both partners purified.
Experiment [4] deals with T2, SARS-CoV-2 spike RBD (S-RBD), hFc tag …. As to the kind of experiment: BLI. The settings on record: both partners purified.

B1: S-E6 Fab (Fab, V domains shown)
VH: QVTLRESGPGLVKPSETLSLTCAVSGGSLSSVNYYWSWIRQHPGKGLEWIGYIYYSGSTNYNPSLKSRVTMSLDTSKNQFSLKLSSVTAADTAVYYCATPGAIMGALHIWGQGTLVTVSS
VL: QAVLTQPSSASSTPGQRVIISCSGSSSNIGSNTVSWYQQVPGAAPKLLIYFDYRRPSGVPDRFSGTRSGTSASLGISGLQSEDEADYYCAAWDDSLSAWVFGRGTKLTVL
B1 registered a Kd in experiment [1] of 11.4 nM.

B2: S-E6 full-length human IgG4e1(S228P) antibody (antibody, V domains shown)
VH: B1 VH
VL: B1 VL
notes: also called S-E6 IgG; source: HEK293F, secreted; clarified culture supernatant, and purified (Mabselect)
For the molecule B2, the binding result in experiment [2] is “no binding”.

B3: S-B8 Fab (Fab, V domains shown)
VH: QVQLVQSGGGLIQPGGSLRLSCAASGFTVSLSHMNWVRQAPGKGLEWVSITYGDGNSDYADSVKGRFTISRDNSKNTLYLQMNSLRAEDTAVYYCAREYYYGMDVWGQGTTVTVSS
VL: not shown
Consider B3, for which the Kd in experiment [1] is 15.4 nM.

B4: S-B8 full-length human IgG4e1(S228P) antibody (antibody, V domains shown)
VH: B3 VH
VL: not shown
notes: also called S-B8 IgG; source: HEK293F, secreted; clarified culture supernatant, and purified (Mabselect)
The molecule B4 gave an IC50 in experiment [3] of 12.9 nM. In addition, binding in experiment [4] was characterised by a dissociation constant (Kd) of 7.79 nM.
